# According to the supplement of paper PMC9112550, “Optimization of the antimicrobial peptide Bac7 by deep mutational scanning” (BMC Biology, 2022):
# Test system: Escherichia coli TOP10
# Test: shrunken log2 fold change of peptide-encoding DNA abundance (4.5 h post-induction vs induction); higher = less antimicrobial activity (less host growth inhibition)
# Conditions: time post-induction: 4.5 h; library: site-saturation at positions 5, 18, 19, 20
# 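Further: peptides expressed intracellularly from a pBAD plasmid library in pooled LB shake-flask culture, induced with 0.3% L-arabinose, DNA abundance read by NGS, three biological replicates, DESeq2 with apeglm shrinkage.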
row,Sequence,shrunken log2 fold change
1,RRIRGRPPRLPRPRPRPVPEPRP,1.98
2,RRIRARPPRLPRPRPRPIEHPRP,0.126
3,RRIRVRPPRLPRPRPRPVISPRP,-0.509
4,RRIRFRPPRLPRPRPRPICNPRP,-0.424
5,RRIRKRPPRLPRPRPRPYKSPRP,-0.243
6,RRIRGRPPRLPRPRPRPNSCPRP,0.0941
7,RRIRVRPPRLPRPRPRPADNPRP,-0.0365
8,RRIRARPPRLPRPRPRPRMVPRP,0.686
9,RRIRTRPPRLPRPRPRPMWGPRP,-0.00569
10,RRIRTRPPRLPRPRPRPDLDPRP,0.145
11,RRIRLRPPRLPRPRPRPAQFPRP,0.28
12,RRIRYRPPRLPRPRPRPIENPRP,-0.0122
13,RRIRKRPPRLPRPRPRPMRYPRP,0.239
14,RRIRCRPPRLPRPRPRPHHPPRP,-0.37
15,RRIRIRPPRLPRPRPRPFWGPRP,-0.139
16,RRIRSRPPRLPRPRPRPMINPRP,-0.23
17,RRIRGRPPRLPRPRPRPFSSPRP,0.193
18,RRIRARPPRLPRPRPRPWDPPRP,0.496
19,RRIRIRPPRLPRPRPRPNPWPRP,-0.119
20,RRIRVRPPRLPRPRPRPIDPPRP,-0.0131
21,RRIRIRPPRLPRPRPRPKIMPRP,-0.549
22,RRIRRRPPRLPRPRPRPYLWPRP,-0.439
23,RRIRPRPPRLPRPRPRPTIDPRP,-0.454
24,RRIRWRPPRLPRPRPRPIRDPRP,0.0528
25,RRIRGRPPRLPRPRPRPPHDPRP,1.27

row,Sequence,shrunken log2 fold change
1,RRIRHRPPRLPRPRPRPLLRPRP,0.0548
2,RRIRARPPRLPRPRPRPRSIPRP,-0.0101
3,RRIRHRPPRLPRPRPRPWNAPRP,-0.0678
4,RRIRLRPPRLPRPRPRPGRYPRP,-0.124
5,RRIRNRPPRLPRPRPRPWYSPRP,-2.32
6,RRIRARPPRLPRPRPRPDGWPRP,1.22
7,RRIRCRPPRLPRPRPRPYEIPRP,-0.00133
8,RRIRVRPPRLPRPRPRPCAKPRP,0.128
9,RRIRPRPPRLPRPRPRPSEWPRP,0.0522
10,RRIRYRPPRLPRPRPRPYVCPRP,-1.14
11,RRIRARPPRLPRPRPRPSDCPRP,-0.164
12,RRIRYRPPRLPRPRPRPNWDPRP,-0.863
13,RRIRERPPRLPRPRPRPRTHPRP,-0.574
14,RRIRARPPRLPRPRPRPFNNPRP,-0.688
15,RRIRDRPPRLPRPRPRPFKCPRP,0.0039
16,RRIRARPPRLPRPRPRPKCHPRP,0.161
17,RRIRCRPPRLPRPRPRPVIKPRP,-0.0948
18,RRIRERPPRLPRPRPRPDKNPRP,-0.383
19,RRIRTRPPRLPRPRPRPPEIPRP,0.0182
20,RRIRTRPPRLPRPRPRPGMGPRP,0.104
21,RRIRARPPRLPRPRPRPQFSPRP,0.0761
22,RRIRERPPRLPRPRPRPVQYPRP,-0.418
23,RRIRERPPRLPRPRPRPIDFPRP,0.136
24,RRIRDRPPRLPRPRPRPQTSPRP,0.117
25,RRIRFRPPRLPRPRPRPYNSPRP,-0.136

row,Sequence,shrunken log2 fold change
1,RRIRCRPPRLPRPRPRPVYPPRP,-0.559
2,RRIRARPPRLPRPRPRPEWEPRP,0.877
3,RRIRARPPRLPRPRPRPALSPRP,0.628
4,RRIRARPPRLPRPRPRPYQMPRP,-0.396
5,RRIRDRPPRLPRPRPRPFSVPRP,-0.0199
6,RRIRNRPPRLPRPRPRPGEIPRP,0.627
7,RRIRWRPPRLPRPRPRPMYLPRP,-0.507
8,RRIRVRPPRLPRPRPRPEPDPRP,0.242
9,RRIRLRPPRLPRPRPRPEKAPRP,0.166
10,RRIRPRPPRLPRPRPRPWIWPRP,-0.186
11,RRIRTRPPRLPRPRPRPGALPRP,0.00437
12,RRIRGRPPRLPRPRPRPNPWPRP,0.454
13,RRIRTRPPRLPRPRPRPVWGPRP,0.368
14,RRIRLRPPRLPRPRPRPDEWPRP,-0.0118
15,RRIRQRPPRLPRPRPRPNYPPRP,-0.239
16,RRIRLRPPRLPRPRPRPMCCPRP,-0.394
17,RRIRCRPPRLPRPRPRPYGEPRP,-0.432
18,RRIRPRPPRLPRPRPRPPRAPRP,0.591
19,RRIRVRPPRLPRPRPRPWDRPRP,0.0372
20,RRIRQRPPRLPRPRPRPPRPPRP,0.752
21,RRIRGRPPRLPRPRPRPRYGPRP,0.134
22,RRIRNRPPRLPRPRPRPDNRPRP,-0.0135
23,RRIRCRPPRLPRPRPRPFFRPRP,-0.116
24,RRIRFRPPRLPRPRPRPCTLPRP,-0.471
25,RRIRFRPPRLPRPRPRPFNSPRP,-0.0372
